Laboratory results as given in publication PMC12154184, “An Anti-BCMA Affibody Affinity Protein for Therapeutic and Diagnostic Use in Multiple Myeloma” (International Journal of Molecular Sciences, 2025).

Molecular target: T1, human APRIL (A Proliferation Inducing Ligand) (human, UniProt O75888 105-250)
T1 construct: No catalogue number is printed; also called hAPRIL; source: bought: R&D Systems
T1 sequence (looked up): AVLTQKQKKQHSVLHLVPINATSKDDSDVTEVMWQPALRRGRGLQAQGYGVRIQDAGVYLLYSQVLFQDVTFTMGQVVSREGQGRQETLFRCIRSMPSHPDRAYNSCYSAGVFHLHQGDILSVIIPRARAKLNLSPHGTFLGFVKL
Experiment: SPR; blocking assay, Biacore T200; human BCMA-rFc immobilised; 1 µM 1-E6 (affibody-His6) or running buffer injected first, then 100 nM APRIL or 25 nM belantamab; PBS-T
Conditions: both partners purified

B1: recombinant human BCMA extracellular domain fused to the Fc portion of rabbit IgG (BCMA-rFc) (Fc fusion, UniProt Q02223 5-50, looked up)
chain: AGQCSQNEYFDSLLHACIPCQLRCSSNTPPLTCQRYCNASVTNSVK
notes: human B Cell Maturation Antigen (BCMA, TNFRSF17, CD269), residues 5-50 containing the ECD as told in the results; the methods give residues 1-54 of UniProt Q02223 for the biotinylated selection antigen (cat. no. 10620-H03H-B); no range is printed for 10620-H15H itself; The discussion speaks of 45 residues; also called human BCMA-rFc; immobilised BCMA; source: bought: Sino Biological (cat. no. …)
B1: binds.
